From article PMC6173795, “The FapF Amyloid Secretion Transporter Possesses an Atypical Asymmetric Coiled Coil” (Journal of Molecular Biology, 2018)

Tests used:
[1] = biological target: the molecule itself; experiment: crystal structure; synthetic peptide at 10 mg/ml; 0.2 M zinc acetate dihydrate, 0.1 M sodium cacodylate pH 6.5, 10% v/v 2-propanol; data processed in P1, six chains in the asymmetric unit
[2] = biological target: the molecule itself; experiment: SEC-MALS; Superdex 75 10/300 GL, phosphate buffer (20 mM PO4, 150 mM NaCl, pH 6.8), 100 ul FapF3-40 samples at 1 mg/ml, 0.25 ml/min; size exclusion profiles of wild type, R33A and R33E

B1: FapFCC synthetic peptide (predicted coiled-coil region of FapF, residues 3-40) (peptide)
chain: DVDIETLKQELLELKQRYEAQQKALAVLEQRVRQVEDQ
notes: FapF amyloid secretion transporter of Pseudomonas, coiled-coil region, residues 3-40; Parallel trimer; six chains (two trimers) in the asymmetric unit of the crystal; also called FapFCC peptide; periplasmic domain of FapF; source: synthetic peptide (ChinaPeptides, 97.5% purity)
stoichiometry N [1]: 3

B2: recombinant FapF3-40 (FapFCC), wild type (domain or fragment, Pseudomonas UK4)
chain: B1 chain
notes: Cloned into pNIC28-Bsa4 (vector: Addgene plasmid no. 26103); also called recombinant FapFCC; not shown: His6, N-terminal, cleaved
stoichiometry N [2]: 3
